Measured values taken from PMC2939065, “Nephrocystin-1 Forms a Complex with Polycystin-1 via a Polyproline Motif/SH3 Domain Interaction and Regulates the Apoptotic Response in Mammals” (PLoS ONE, 2010).
Values belong to the binder of their own block, whether it stands above or below them.

Experiments:
[1] = target: T1, NPHP1-SH3 (15N-labelled SH3 domain of nephrocystin-1 for NMR and ITC) (Homo sapiens (Human), UniProt O15259); assay: NMR titration (1H-15N HSQC)
T1 chain: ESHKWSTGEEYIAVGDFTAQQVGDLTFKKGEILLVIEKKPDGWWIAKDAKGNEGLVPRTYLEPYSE

[2] = target: T2, NPHP1-SH3 (15N-labelled SH3 domain of nephrocystin-1 for NMR and ITC) (human, UniProt O15259 147-212); assay: NMR titration; 1H-15N HSQC of 15N NPHP1-SH3 (0.3 mM) with added peptide (0, 0.5, 1, 1.5, 2, 3, 4 equivalents for peptPP2); fast exchange; conditions: both partners purified
T2 construct: Nephrocystin-1 (NPHP1), human, SH3 domain, codons 147-212, expressed from pGEX-2T; 15N isotope label for NMR; also called 15N NPHP1-SH3
T2 sequence (looked up): T1 chain

- binding result [1]: no binding
B1: peptPP1 (protein)
chain: Ac-RGSKVSPDVPPPS-NH2

- Kd [2]: 300 ± 20 µM
B2: peptPP2 (peptide)
peptide: Ac-GLRPALPSRLARAS-NH2
notes: stretch of the PC-1 C-tail containing PP2 (P4267ALPSR4272), aminoacids 4264-4277; also called PP2 peptide; source: synthetic peptide, bought: CASLO (Lyngby, Denmark)
